This note sets out measurements from PMC12411348 (2025).

The experiment deals with recombinant human pVHL (CUSABIO) (human, UniProt P40337-1 1-213). The experiment in a line: SPR.
Sequence of recombinant human pVHL (CUSABIO) (P40337 whole entry): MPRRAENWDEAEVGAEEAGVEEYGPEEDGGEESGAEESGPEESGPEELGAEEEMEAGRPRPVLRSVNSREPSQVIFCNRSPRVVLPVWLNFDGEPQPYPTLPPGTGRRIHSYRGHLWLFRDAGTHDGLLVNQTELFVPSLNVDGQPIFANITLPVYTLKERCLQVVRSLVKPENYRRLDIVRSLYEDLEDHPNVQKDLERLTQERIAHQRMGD

B1: recombinant TCF7L2(1–456) (domain or fragment)
chain: MPQLNGGGGDDLGANDELISFKDEGEQEEKSSENSSAERDLADVKSSLVNESETNQNSSSDSEAERRPPPRSESFRDKSRESLEEAAKRQDGGLFKGPPYPGYPFIMIPDLTSPYLPNGSLSPTARTLHFQSGSTHYSAYKTIEHQIAVQYLQMKWPLLDVQAGSLQSRQALKDARSPSPAHIVSNKVPVVQHPHHVHPLTPLITYSNEHFTPGNPPPHLPADVDPKTGIPRPPHPPDISPYYPLSPGTVGQIPHPLGWLVPQQGQPVYPITTGGFRHPYPTALTVNASMSRFPPHMVPPHHTLHTTGIPHPAIVTPTVKQESSQSDVGSLHSSKHQDSKKEEEKKKPHIKKPLNAFMLYMKEMRAKVVAECTLKESAAINQILGRRWHALSREEQAKYYELARKERQLHMQLYPGWSARDNYGKKKKRKRDKQPGETNEHSECFLNPCLSLPPIT
Take B1: the Kd came to 806 nM.

The term Kd denotes the constant that tells how readily two partners part at equilibrium.
